Source: patent US20050227306

Columns and labels:
[1] = test system: His6-tetraCys-X-MBP protease substrate 25-F [MBP: P0AEX9]
[2] = test system: His6-tetraCys-X-MBP protease substrate 21-F [MBP: P0AEX9]
[3] = test system: His6-tetraCys-X-MBP protease substrate 24-F [MBP: P0AEX9]
[4] = test system: His6-tetraCys-X-MBP protease substrate 26-F [MBP: P0AEX9]
[5] = test system: His6-tetraCys-X-MBP protease substrate 23-F [MBP: P0AEX9]
[6] = test system: His6-tetraCys-X-MBP protease substrate 22-F [MBP: P0AEX9]

Substance | relative rate of reaction (initial proteolysis rate by fluorescence anisotropy, normalised to the cognate substrate) [1] | relative rate of reaction (initial proteolysis rate by fluorescence anisotropy, normalised to the cognate substrate) (relative rate) [2] | relative rate of reaction (initial proteolysis rate by fluorescence anisotropy, normalised to the cognate substrate) (relative rate) [3] | relative rate of reaction (initial proteolysis rate by fluorescence anisotropy, normalised to the cognate substrate) (relative rate) [4] | relative rate of reaction (initial proteolysis rate by fluorescence anisotropy, normalised to the cognate substrate) (relative rate) [5] | specific reaction rate (per supplier's unit of enzyme) [5] | relative rate of reaction (initial proteolysis rate by fluorescence anisotropy, normalised to the cognate substrate) (relative rate) [6] | SDS-PAGE with Coomassie staining after overnight incubation [1] | relative rate of reaction (initial proteolysis rate by fluorescence anisotropy, normalised to the cognate substrate) (relative rate) [1] | SDS-PAGE with Coomassie staining after overnight incubation [2] | SDS-PAGE with Coomassie staining after overnight incubation [3] | specific reaction rate (per supplier's unit of enzyme) [3] | SDS-PAGE with Coomassie staining after overnight incubation [5] | SDS-PAGE with Coomassie staining after overnight incubation [6] | specific reaction rate (per supplier's unit of enzyme) [1] | specific reaction rate (slope of initial proteolysis rate versus protease concentration) [1] | relative rate of reaction (initial proteolysis rate by fluorescence anisotropy, normalised to the cognate substrate) [4] | specific reaction rate (slope of initial proteolysis rate versus protease concentration) [6]
Enterokinase | n.d. (not detected) | 0.5 | 0.2 | 1 | 1 | enterokinase, 0.130±0.007 | 1.3 |  |  |  |  |  |  |  |  |  |  | 
Factor Xa |  | 0.04 | 1 | 0 | 0.01 |  | 0.5 | formation of a small amount of a small molecular-weight band | 0.05 | formation of a small amount of a small molecular-weight band | little or no intact fusion protein was detected after an overnight incubation | Factor Xa, 0.37±0.03 | formation of a small amount of a small molecular-weight band | little or no intact fusion protein was detected after an overnight incubation |  |  |  | 
Thrombin |  | 0 | 0 | 0 | -0.02 |  | 0.4 |  | 1 |  |  |  |  |  | thrombin, 0.20±0.02 | thrombin; 240±20 |  | 
Trypsin |  | 0.3 | 0.4 |  | 0.1 |  | 1 |  | 0.5 |  |  |  |  |  |  |  | n.d. (not detected) | trypsin; 760±60
